# B1: 15G7.2A7 (protein)
# chain 1: EVQLQQSGPELVKPGASVKISCKASGYTFTDYYMNWVKQSHGKSLEWIGDINPNNGGTNYNQKFKGKATLTVDKSSSTAYMELRSLTSEDSAVYYCTSGYGFPYWGQGTLVTVSA
# chain 2: DIQMNQSPSSLSASLGDTISITCRASQNINIWLSWYQQKPGNIPQLLIYKASNLHTGVPSRFSGSGSGTDFTLTISSLQPEDIATYYCLQGQSYPLTFGAGTKLVMK
# B2: 20D11.2C6 (protein)
# chain 1: EVQLQQSGPELVKPGASVKISCKASGYTFTDFYINWVKQSHGKSLEWIGDINPKNGGINYNPKFKIKATLTVDKSSSTSYMDLRGLTSEDSAVYYCTSGYGFPYWGQGTLVTVSA
# chain 2: DIQMNQSPSSLSASLGDTITITCRASQNIYIWLSWYQQKPGNIPKLLIYKASNLHTGVPSRFSGSGSGTDFTLTISTLQPEDIATYFCLQGQSYPLTFGAGTKLEMK
# B3: 4G2.2G6 (protein)
# chain 1: QIQLVQSGPDLKKPGETVKISCKASGYTFTTYVMSWVKQAPGKDLKWMGWINTHSGVPTYADDFKGRFDFSLETSANTAFLQINNLKNEDTATYFCTRDGNDGDAMDNWGQGTSVTVSS
# chain 2: not shown
# B4: 13A12.2E5 (protein)
# chain 1: QIQLVQSGPELKKPGETVKISCKTSGYKFKTYVMSWVKQAPGKALKWMGWINTYSGVPTYADDFKGRFAFSLETSASTAYLEIINLKNEDTATYFCARDGNYGDPMDYWGQGTSVTVSS
# chain 2: DVVMTQTPLTLSVAIGQPASISCKSSQSLLYTNGKTYLNWLLQRPGQSPKRLIYLLSKLDSGVPDRFSASGSGTDFTLKISRVEAEDLGVYYCLQSTHFPLTFGAGTKLEMK
# B5: 3B11.2G2 (protein)
# chain 1: QIQLVQSGPELKKPGETVKISCKTSGYKFKTYVMSWVKQAPGKALKWMGWINTYSGVPTYADDFKGRFAFSLETSASTAYLEIINLKNEDTATYFCARDGNYGDPMDYWGQGTSVTVSS
# chain 2: not shown
# B6: 2D10.2B2 (protein)
# chain 1: QVQLQQSGPELVKPGASVKISCKASGYTFTDYYINWVKQRPGQGLEWIGWIYPGSNDTKYNEKFKGKATLTVDTSSSTAYMQLGSLTSEDSAVYFCANYFGCSGWFFDVWGTGTTVTVSS
# chain 2: DIVMTQAAFSNPVTLGTSASISCRSSKSLLHSDGITYLYWYLQRPGQSPQLLIYRMSNLASGVPDRFSGSGSGTDFTLRISRVEAEDVGVYYCAQMIEFPLTFGAGTILELK
# B7: 4A11.2B5 (protein)
# chain 1: QVQLQQSGPELVKPGASVKISCKASGYSFTNYYIHWVKQRPGQGLEWIGWIYPGSGNTNYNEKFKGKATLTADTSSSTTNMQLSSLTSEDSAVYYCSTAPGGFDVWGSGTTVTVSS
# chain 2: DIVMTQAAFSNPVTLGTSASISCRSSKSLLHSDGITYLYWYLQRPGQSPQLLIYRMSNLASGVPDRFSGSGSGTDFTLRISRVEAEDVGVYYCAQMLEFPLTFGAGTKLELK
# B8: 6H6.2D6 (protein)
# chain 1: QIQLVQSGPELKKPGETVKISCKASGYTFTTYGMSWVKQAPGKGLKWMAWINTYSGVPTYADDFKGRFAFSLETSASTAYLQINNLTNEDTATYFCARGPYAMDYWGQGTSVTVSS
# chain 2: DIQMTQTTSSLSASLGDRVTISCSASQGISNYLNWYQQKPDGTVKLLIYYTSSLHSGVPSRFSGSGSGTDYSLTISNLEPEDIATYYCQQYSELPYTFGSGTKLEIK
# B9: 20H5.A3 (protein)
# chain 1: QIQLVQSGPELKKPGESVKISCKASGYAFTTYGMSWVQQAPGKGLKWMGWVNTYSGVPTCADDFKGRFAFSLETSASTAYLQINNLRNEDTATYFCARGPYAMDYWGQGTSVTVSS
# chain 2: DIQMTQTTSSLSASLGDRVTINCSASQDISNYLNWYQQKPDGTVKLLIYYTSSLLSGVPSRFSGSGSGTDYSLTISNLEPEDIATYFCQQYSKLPYTFGSGTHLEIK
# B10: 23H9.2E4 (protein)
# chain 1: QIQLVQSGPELKKPGETVKISCKASGYTFTTYAMSWVKQAPGKGLKWMGWINTYSGVPTYADDLKGRFAFSLETSASTAYLQINNLKNEDTATYFCARGPYAMDYWGQGTSVTVSS
# chain 2: DIQMTQTTSSLSASLGDRVTISCSASQGINNYLNWYQQKPDGTVKLLIYYASSLHSGVPSRFSGSGSGTDYSLTISNLEPEDIATYYCQQYSQVPYTFGSGTKLEIK
# B11: 19B5.2E6 (protein)
# chain 1: QIQLVQSGPELKKPGETVKISCKASGYTFTTYAMSWVKQAPGKGLKWMGWINTYSGVPTYADDLKGRFAFSLETSASTAYLQINNLKNEDTATYFCARGPYAMDYWGQGTSVTVSS
# chain 2: DIQMTQTTSSLSASLGDRVTISCSASQGINNYLNWYQQKPDGTVKLLIYYASSLHSGVPSRFSGSGSGTDYSLTISNLEPEDIATYYCQQYSQVPYTFGSGTKLEIK
# B12: 13H12.2F8 (protein)
# chain 1: QIQLVQSGPELKKPGETVKISCKASGYTFTTYGMSWVKQAPGKGLKWMGWINTYSGVPTYADDFKGRFAFSLETSASTAYLQINNLKNEDTATYFCAVPYEYDGAYWGQGTLVTVSA
# chain 2: not shown
# B13: 14H10.2C9 (protein)
# chain 1: QIQLVQSGPELKKPGETVKISCKASGYTFTTYGMGWVKQAPGKDLKWMGWINTYSGVPTYADDFKGRFAFSLETSASTAYLQISNLKNEDTATYFCSTPYEYDGAYWGQGTLVTVSA
# chain 2: not shown
# B14: 19D9.2E5 (protein)
# chain 1: QIQLVQSGPELKKPGETVKISCKASGYTFTTYGMGWVKQAPGKGLKWMGWINTYSGVPTYADDFKGRFAFSLETSTSTAYLQINNLKNEDMATYFCATPYEYDGAYWGQGTLVTVSA
# chain 2: not shown
# B15: 846.2H3 (protein)
# chain 1: QIQLVQSGPELKKPGETVKISCKASGYTFTNYGMNWVKQAPGKGLKWMGWINTYTGEPSYADDFKGRFAFSLETSASTAYLQINNLKNEDMATYFCARWGGYDGDYYAMDYWGQGTSVTVSS
# chain 2: NIMMTQSPSSLAVSAGEKVTMSCKSSQSVLYSSNQKNYLAWYQQKPGQSPKLLIYWASTRESGVPDRFTGSGSGTDFTLTISSVQPEDLAVYYCHQYLSSLTFGAGTKLELK
# B16: 846.1F5 (protein)
# chain 1: QIQLVQSGPELKKPGETVKISCKASGYTFTNYGMNWVKQAPGKGLKWMGWINTYTGEPSYADDFKGRFAFSLETSASTAYLQINNLKNEDMATYFCARWGGYDGDYYAMDYWGQGTSVTVSS
# chain 2: NIMMTQSPSSLAVSAGEKVTMSCKSSQSVLYSSNQKNYLAWYQQKPGQSPKLLIYWASTRESGVPDRFTGSGSGTDFTLTISSVQPEDLAVYYCHQYLSSLTFGAGTKLELK
# B17: 846T.1H2 (protein)
# chain 1: QIQLVQSGPELKKPGETVKISCKASGYTFTNYGMNWVKQAPGKGLKWMGWINTNTGEPTYAEEFKGRFAFSLETSASTAYLQINNLKNEDTATYFCATGGGNWDFDYWGQGTTLTVSS
# chain 2: not shown
# B18: mIMT001 (IMT001) (protein)
# chain 1: QIQLVQSGPELKKPGETVKISCKASGYTFTNYGMNWVKQAPGKGLKWMGWINTNTGEPTYVEEFKGRFAFSLETSASTAYLQINNLKNEDTATYFCAPYDNFFAYWGQGTLVTVSA
# chain 2: DIVITQDELSNPVTSGESVSISCRSSKSLLYKDGKTYLNWFLQRPGQSPQLLIYLMSTHASGVSDRFSGSGSGTDFTLEISRVKAEDVGVYYCQQLVDYPLTFGAGTKLELK
# Target: Human Galectin-3 protein (Acro Biosystems, GA3-H5129)
# Test: ELISA, hGal3 coated, competitor hTIM3 (FIG. 24)
row,Protein,"GAL3-TIM3 assembly, % of level without antibody"
1,B1,to 50-75% of levels observed in the absence of a GAL3-targeted antibody
2,B2,to 50-75% of levels observed in the absence of a GAL3-targeted antibody
3,B3,to 50-75% of levels observed in the absence of a GAL3-targeted antibody
4,B4,to 50-75% of levels observed in the absence of a GAL3-targeted antibody
5,B5,to 50-75% of levels observed in the absence of a GAL3-targeted antibody
6,B6,to 5-20% of levels observed in the absence of a GAL3-targeted antibody
7,B7,to 50-75% of levels observed in the absence of a GAL3-targeted antibody
8,B8,to 5-20% of levels observed in the absence of a GAL3-targeted antibody
9,B9,to 5-20% of levels observed in the absence of a GAL3-targeted antibody
10,B10,to 20-50% of levels observed in the absence of a GAL3-targted antibody
11,B11,to 20-50% of levels observed in the absence of a GAL3-targted antibody
12,B12,to 20-50% of levels observed in the absence of a GAL3-targted antibody
13,B13,to 50-75% of levels observed in the absence of a GAL3-targeted antibody
14,B14,to 50-75% of levels observed in the absence of a GAL3-targeted antibody
15,B15,to less than 5% of levels observed in the absence of a GAL3-targeted antibody
16,B16,to 5-20% of levels observed in the absence of a GAL3-targeted antibody
17,B17,to 5-20% of levels observed in the absence of a GAL3-targeted antibody
18,B18,to 5-20% of levels observed in the absence of a GAL3-targeted antibody

# — US20260234269
